Experimental data from the DeepSol protein solubility set.

Assay: soluble on expression in E. coli; label from the status in PepcDB or PDB records

Soluble on expression in E. coli, not soluble:
MGPAHKARDDGEGGWSMNSHPPLSVQTLNTLDRKAFTTALHFAFELSPWVVERAWDARPFASVETMHAAMMAVLDAASTADKLALIRAHPELAGKAAIAKQLTAESNAEQASAGLDKLTPDEFARFHALNAAYNTRFGFPFIICVRLNDKASILEAMAARLSNDEASEIAQAITQIGLISKLRLLDAVTHLEHHHHHH, MAHHHHHHMDFQNRVGHKTGSGMPLSREDINQERRERLKQLALENIDITKDPYILKNNVGMFECKLCLTLHNNESSYLCHTQGKKHQMNLAQRLLKEKNEMTTNRLNKPVSEPRKIVKIGKPRYDVTRVRNKKNQLGILFELSFPNIKENTKPKFRFMSSFEQKIEAPDKKYQYLLFAAEPYETIAFKIPNIDIDENEGFYYKWFDKKKIFVMQIHFQNAFPPGHVNLREHSNFLSSTNRW, MSSYDVVIIGGGPAGLFAAYELAGLAKDNVSNYKILLVDKGARASKRTCPLLSPKEKCTFCDPCHIMYGFGGAGTFSSGIINLRPDIGGELHEITRSWDKAQELINYVDDIFVKFGAPKDRVFEPNMEKVREIQRRAAKVGAEFVPIRQRHMGTDKTPLIIENIVNYVEKRGIKIGELTEVIDIEKKGNKFFLKTSRGEIESRIVLVAPGRAGAKWFYEQSKKLGVDTIPGPLDIGVRVETESFVFDELTEAVWDPKVILYSKRYDDKVRTFCVNPRGYIMKEVYDDGTIGVNGETYVDKKSNNTNFAFLTTIKLSDPLEDTIEYGKSIARLMTRLGGGKPILQRLIDFQKGRRSTWERINRSTVKPTLRDVTPGDISMGLPYRVVDNLIDGLERLDSIAPGIFSSNTLLYAPEIKYYSVRAVVDNNMETVVDNLFAAGDGTGLSRGINVAAATGILAARGIAIKLGLDLEHHHHHH, GPGSMSTTAYALVAEEKQYPLQVGKNVVGRSSVPVEGVSFINLESPLAAISRMQAFVDIGANGDAWISDCNSTNGTFLSISPGPGIRLEANRYYQLSPGCRIVFGDVVCTFETLSEAPPTPEHPAHLLTSHSRPTRKTESLGVVDALADSTATTTPARHPSKQLNAHRSNVPYLDESGSLLREPAASRETVATTKKTPRRERREPTAPSPPLKRAKVESAAPSSFLKVKTAATAKATTPARALAARPHVCLTGMDSDERVAVTKRVRELKGRVVDDITKANLLVVATPPVRTPKFIAAVARGIPVVSVDYICNRRAELDDARHHIVGLKTDQHTYTAAELKKVIYRKDASPLLQGVSFNIAALSSKTKSVAAEIISSSGGEVVSTKKGGGTALTDAQLDKLYDSILRGKVPDVL, HNPLYTAHELESPFQDHGARVAIVWDKAADTLEKLRRNTPLETIVSVNMMTAMPAVQQALLRLPIPMIRKKRDALTASAPNTIPWEILVGSALGGNGDDIVPCPEVTKKSIALILYTSGTTGTPKGAQLSHGNLFANIMQGKAWVKGIGDQDER, MAFIHTSLTRLMRFAVDQTKDIIEPLMVTKVLTEFSESENDGLSHYAHYAKFHNYLVPNMAKLAEYSIEERVRVIFGFAAVVSDDFLKQIQREGLVHLDKKKRICKFTSHNGKWKLEGDHSHSARMKRRWSMRVRVVVGLPSLMNFLVEKTKDIIEPMLASAAFREFSESEDGGLPEHAYYNHFHKNVAPNMAKIEEYSIEERVRVMFALAGRVSADFRAQTKGLVELDDGKRISKFTSTDGKLKLEGDHSDSARRKRSAAFYRKTDHHCRSANDSKPRRKNGRQSDSEFSDKSGSDEDDVESAISYGNSPKRARCEKSADPEMHVSSGSDDDEVEDVGGMDEEPVLLPIDSDESHIGHLQNGEEMMVEDDNQPIPEDPQYSANSSHQGRRMSGRIQEKLSASIAQETTDAAVAIPHVPILNPPFESDDEEVKYIGAVKGQPKPGPIESVFDQINNRDHFQGNQEYRNQSISERKVDVPLFVEHQQISLSAENRATSAEWKSIFLHDFLKQLTQFICFFECSELAEIKRNIKEVMADEGKISSFQKLEIIDIRTVLGAFFFGVSRKIKSTGSNNSTMKAKDFLVTFKYFLLGLDFSELLELSTVFKRKLTSSHVQRHPPSSPKPTLHNF, MGSDKIHHHHHHMAKIGIVICNYNKQNDVIDCIQSVLESKYEDYHIYVVDNASTDESVRLIRECYGSCDRLTLIENSENLGGSGGFNTGLRVAMAEGHMYLMCVDNDALLDENCIGTLSDFLDSHEKAGIAAAKIYHTGQENYVQQYGSFIDYDNYSVDSTYLNHIEDGSMPDVVYSDAVPACALMIRRTVVEQIGVMPEENFLYWDDTEWCVRCREAGYEVASVGAAAASHAMGAKKEDINTFPTYYAWRNWIKFFLDHIDEERLSDMAETFLGSIFEINYTDLYRGEENRSKTVMAALDDALHKVMGKAKEDRIFNLELTYDGLERAIGDKSDIAIMAGEFPLYADALKEKIKVMWPDKRVYIVGLQDIDEAYGTAHFQPDATITICESIFRQDDLSLSTYVMDLDGNVLVDEDDVLMVINYNFSRRSFIFSMKPLFMRLSRQNYGF, MRDAQRPDLSTTFTVLLAGGRGSRLHELTSRECKPALPFAGPRRIVDFTLANAARSGLTRMIVATQYRPETLAHHLESRWASRFAGGSLRLREGTAVTGSPQGYGGTAAAVAANLAELQSEGVRELVVLAADHVYEMDYADMVAAHRASGASATVAVDTVPTDRASEFGVVRTSEGGRIESFLEKPAVVPADPAIPGRAQVSMGIYVFDLDWLASVLRIIPGATQDFGHDILPLAVALGEAHAYRVPGDNFYWRDVGTLDAYRLAQLEFQTGEAPCALPPRIAASEHEMKAATGELIQFAFRMQTGGIALHSPRLGGDLPGRWTMLDESVLLPGARVAPGVRLTRTIVAPGTSVPAGLVIGEDPDEDARWFRRTEEGTVLVTTPMLARRAADRGRLVAPFADSRMGRSALEHHHHHH

Soluble on expression in E. coli, soluble:
MGHHHHHHSHMTDRQDIQKSMAAFKNLSAQCQEVRKRKELELQILTEAIRNWEGDDIKTLGNVTYMSQVLIQCAGSEEKNERYLLLFPNVLLMLSASPRMSGFIYQGKLPTTGMTITKLEDSENHRNAFEISGSMIERILVSCNNQQDLQEWVEHLQKQTKVTSVG, MVAVYDVEFPLPLNTQPMEARAAGVLPRDDGPWQYEPKWDGFRCLAFKAGKAVDLRAKSGKPLGRYFPELMAALSALAATEFVIDGEIIIEIEGRASFDALQMRLHPAESRIRKLSRETPARLVVFDMLVAPEGRPRMELPLRDRRAEAEDLVAKAKTKTLRLSPATTSLATADNWLKGAGSGSIDGVVAKLLNGPYRPGERAMVKVKRLRTADCVVGGFRYLNGKRQVGSLLLGLYNGDGLLDHVGFTSTIANDERAVLTEKLENLRGGSGFTGKAPGGPSRWSTERSGEWEPVRPELVVEVRFDHVTGDRFRHGTKLVRWRPDKAPLQCTFEQLELEHHHHHH, MPMISCDMAYGRTDEQKRALSAGLLRVISEATGEPRENIFFVIREGSGINFVEHGEHLPDYVPGNANDKALIAKLK, GPGSMNERLEDIALTLVGAGKGILAADESTATIGKRFESIGVECTEDNRRAYREMLFTAKEAMESAISGVILFDETLRQKASTGQMLTDLIRDAGAVPGIKVDTGAKPLAAFPQETITEGLDGLRERLKDYYTLGARFAKWRAVIAIDAQTLPTRGAISQNAQALARYAALCQEAGLVPIVEPEVLMDGPSRQHSITRCFEVTKVVLHTVFKELFEARVLFEGMILKPNMVIDGKDARIASVEEVAEKTVHVLKQTVPAAVPGIAFLSGGQTDEEATAHLSAMNALGALPWKLTFSYGRALQAAALKAWAGKNENIVVAQKAFCHRARMNHLAALGQWTKDQEKSCA, KDAVLVNSELKNIYMKDVINKTNMKITKKIGTQLIFNTNEKTRVWDDDNYNKVISSNVSPAQERRFKEEEEVDIYALIKSYSVICKEQYNYVDGGLIKTSDREKLDSTIYMNIFGEQIPLKEQSKYKITFQNKFVTFQEIDVRLRKSLMSDNRIKLYEHNSICKKGYWGIHYKDNTTKFTDLFTHPNYTDNETIDMSKVSHFDVYLNEEFSKN, MKNEVKFMSEVIKVVDVKIFPHRYLKAETTEKVLNEIYDLDGIVRVIVHGQPLPKTVPFGPARGLPVNHQDRKVIKVKGEEMELRVKVGEIIITVEGEKLEKIMDGIEEICKRNFPFGYDIYVGAFTKIKPTVTDYMKYGDISSIDPRLIGMVDASARLKDSVKMIKLEHHHHHH, MKKTFNLVATAAAGIEAVVGKELRNLGLDCQVENGRVLFKGNIETIAKSNLWLRSADRIKIVVGEFPARTFEELFQGVYALDWENYLPLGCQFPVAKAKSVKSKLHNEPSIQGITKKAIVKKLQHYFHRPDSVPLPENGPEFKIEISLLKDQARVMIDTTGPSLFKRGYRTEKGGAPIKENMAAAIILLSNWFPDKPFVDPTCGSGTFCIEAAMIGMNIAPGFNRDFAFEEWPWVDEALVTRVRNEADEQADYDIQLDISGFDFDGRMVEIARKNAREVGLEDVVKLKQMRLQDFKTNKINGVLISNPPYGERLLDDKAVDILYNEMGETFAPLKTWSQFILTNDTDFEQKFGRKADKKRKLYNGSLKVDLYQFYGQRVKRVLR, MSLAKNIVFIGFMGSGKSTLARALAKDLDLVFLDSDFLIEQKFNQKVSEIFEQKRENFFREQEQKMADFFSSCEKACIATGGGFVNVSNLEKAGFCIYLKADFEYLKKRLDKDEISKRPLFYDEIKAKKLYNERLSKYEQKANFILNIENKNIDELLSEIKKVIKEGGSHHHHHH, MSLAAYSLPVDVEAEDCTLGNGAVVTTNVYGTQYPGYSGDGFVWVANSGTITLEVTIPENGMYELSTRCWMYLGKEDETRMQVISINGKSHSNYFIPNKGQWIDYSFGFFYLEAGKATIEIGSSGSWGFILYDKIYFDHADMPDHIIDPTPCDPNATPETRALMKYLTSVYGKYVISGQQEIYGNGNDGNYELEFDYIYEKTGKYPAIRGFDFMNYNPLYGWEDGTTARIIDWVKNRGGIATACWHINIPRDFASYKLGEPVDWTNCTYKPTSSFNTANCLDETTKEHAYLMMAIEDLAEQLLILQEQNIPILFRPFHEAEGYNNTDGSGAWFWWGSAGAEVYKELWKLLYKTLTEKYGIHNLIWEVNLYTYANSYEWYPGDEYVDIIGYDKYEGSPNTWGTSAASSLFLTLVNYTNDTKMVALTENDVIPDIQNIVNEEAWWLYFCPWYGDFLMSPRYNDPVLLNTIYNSEYVITLDELPENLYEYDGEIPDINYGDLNNDGNINSTDYMILKKYILKVLERMNVPEKAADLNGDGSINSTDLTILKRFIMKAITKFPVTQKEGHHHHHH, SAANVAHGLQQNVLYVDSNGGLTASRLLQLLQAKTQDEEEQAEALRRIQVVHAFDIFQMLDVLQELRGTVAQQVTGSSGTVKVVVVDSVTAVVSPLLGGQQREGLALMMQLARELKTLARDLGMAVVVTNHITRDRDSGRLKPALGRSWSFVPSTRILLDTIEGAGASGGRRMACLAKSSRQPTGFQEMVDIGTWGTSEQSATLQGDQT, MGNKICQFKLVLLGESAVGKSSLVLRFVKGQFHEFQESTIGAAFLTQTVCLDDTTVKFEIWDTAGQERYHSLAPMYYRGAQAAIVVYDITNEESFARAKNWVKELQRQASPNIVIALSGNKADLANKRAVDFQEAQSYADDNSLLFMETSAKTSMNVNEIFMAIAKKLPKN, VSVGTHPTFENSPSGTVLTSPPDGSAVDRATDAARRVVDALLRTDRGNANLERVAEELNSIAGHLEEHAPAVAERLIDMWNGEGVTRHDPVTGPENALAPPVVLEGLSDGSVRGTVTLTIPYQGPPGHVHGGVSALLLDHVLGVANAWGGKAGMTAQLSTRYHRPTPLFEPLTLTGKLMSVDGRKITTAGDIRTADGQVCVSVEGLFVDKTVPRPR
